Assay results as given in US20170306033A1 (Amgen, published 2017).
Where a chain is given by its changes, count along the chain named.

T1: human PAC1 receptor (human, UniProt P41586 21-468)
T1 sequence: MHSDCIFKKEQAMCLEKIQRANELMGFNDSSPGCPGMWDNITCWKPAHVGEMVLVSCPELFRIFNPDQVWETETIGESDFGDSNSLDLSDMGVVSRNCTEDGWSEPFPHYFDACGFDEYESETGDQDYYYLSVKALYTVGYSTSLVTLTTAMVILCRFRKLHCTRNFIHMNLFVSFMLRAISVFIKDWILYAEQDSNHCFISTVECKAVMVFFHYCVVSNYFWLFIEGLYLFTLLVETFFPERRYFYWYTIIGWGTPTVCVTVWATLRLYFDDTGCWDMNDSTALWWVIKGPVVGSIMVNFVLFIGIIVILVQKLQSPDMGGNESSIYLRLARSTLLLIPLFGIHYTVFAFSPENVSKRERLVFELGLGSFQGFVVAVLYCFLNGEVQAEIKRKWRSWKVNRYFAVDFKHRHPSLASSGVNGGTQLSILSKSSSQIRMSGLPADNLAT

B1: iPS:326631 (bispecific antibody, human IgG2, kappa, lambda)
light 1: not shown
heavy 1: QVQLQQSGPGLVKPSQTLSLTCAISGDSVSSNSATWNWIRQSPSRGLEWLGRTYYRSKWSNHYAVSVKSRITINPDTSKSQFSLQLNSVTPEDTAVYYCARGTWKQLWFLDHWGQGTLVTVSSASTKGPSVFPLAPCSRSTSESTAALGCLVKDYFPEPVTVSWNSGALTSGVHTFPAVLQSSGLYSLKSVVTVPSSNFGTQTYTCNVDHKPSNTKVDKTVERKCCVECPPCPAPPVAGPSVFLFPPKPKDTLMISRTPEVTCVVVDVSHEDPEVQFNWYVDGVEVHNAKTKPREEQFNSTFRVVSVLTVVHQDWLNGKEYKCKVSNKGLPAPIEKTISKTKGQPREPQVYTLPPSREEMTKNQVSLTCLVDGFYPSDIAVEWESNGQPENNYDTTPPMLDSDGSFFLYSDLTVDKSRWQQGNVFSCSVMHEALHNHYTQKSLSLSPGK
light 2: not shown
heavy 2: not shown
B2: iPS:327285 (bispecific antibody, human IgG1, kappa, lambda, N297G)
light 1: not shown
heavy 1: not shown
light 2: QSVLTQPPSVSAAPGQKVTISCSGSSSNIGNNYVSWYQQLPGTAPKLLIYDNNKRPSGIPDRFSGSKSGTSTTLGITGLQTGDEADYYCGTWDSRLSAVVFGKGTKLTVLGQPKANPTVTLFPPSSEELQANKATLVCLISDFYPGAVTVAWKADGSPVKAGVETTKPSKQSNNKYAAKSYLSLTPEQWKSHRSYSCQVTHEGSTVEKTVAPTECS
heavy 2: QVQLVESGGGVVQPGRSLRLSCAASGFTFSSFGMHWVRQAPGKELEWVAVISFDGSIKYSVDSVKGRFTISRDNSKNTLFLQMNSLRAEDTAVYYCARDRLNYYDSSGYYHYKYYGMAVWGQGTTVTVSSASTKGPSVFPLAPSSKSTSGGTAALGCLVKDYFPEPVTVSWNSGALTSGVHTFPAVLQSSGLYSLESVVTVPSSSLGTQTYICNVNHKPSNTKVDKKVEPKSCDKTHTCPPCPAPELLGGPSVFLFPPKPKDTLMISRTPEVTCVVVDVSHEDPEVKFNWYVDGVEVHNAKTKPCEEQYGSTYRCVSVLTVLHQDWLNGKEYKCKVSNKALPAPIEKTISKAKGQPREPQVYTLPPSRKEMTKNQVSLTCLVKGFYPSDIAVEWESNGQPENNYKTTPPVLKSDGSFFLYSKLTVDKSRWQQGNVFSCSVMHEALHNHYTQKSLSLSPGK
B3: iPS:327281 (bispecific antibody, human IgG1, kappa, lambda, N297G)
light 1: not shown
heavy 1: not shown
light 2: B2 light 2 with K103G
heavy 2: B2 heavy 2 with E44G
B4: iPS:327280 (bispecific antibody, human IgG1, kappa, lambda, N297G)
light 1: not shown
heavy 1: not shown
light 2: B2 light 2 with K103G
heavy 2: B2 heavy 2 with E44G
B5: iPS:327290 (bispecific antibody, human IgG1, kappa, lambda, N297G)
light 1: DIQLTQSPSFLSASVGDRVTITCRASQSIGRSLHWYQQKPGKAPKLLIKYASQSLSGVPSRFSGSGSGTEFTLTISSLQPEDFATYYCHQSSRLPFTFGPGTKVDIKRTVAAPSVFIFPPSDEQLKSGTASVVCLLNNFYPREAKVQWKVDNALQSGNSQESVTEQDSKDSTYSLESTLTLSKADYEKHKVYACEVTHQGLSSPVTKSFNRGEC
heavy 1: not shown
light 2: B2 light 2 with K103G
heavy 2: B2 heavy 2 with E44G, E370K
B6: iPS:327287 (bispecific antibody, human IgG1, kappa, lambda, N297G)
light 1: EIVLTQSPATLSLSPGERATLSCRASQSVGRSLHWYQQKPGQAPRLLIKYASQSLSGIPARFSGSGSGTDFTLTISSLEPEDFAVYYCHQSSRLPFTFGEGTKVDIKRTVAAPSVFIFPPSDEQLKSGTASVVCLLNNFYPREAKVQWKVDNALQSGNSQESVTEQDSKDSTYSLESTLTLSKADYEKHKVYACEVTHQGLSSPVTKSFNRGEC
heavy 1: not shown
light 2: B2 light 2
heavy 2: B2 heavy 2
B7: iPS:327288 (bispecific antibody, human IgG1, kappa, lambda, N297G)
light 1: not shown
heavy 1: not shown
light 2: B2 light 2 with K103G
heavy 2: B2 heavy 2 with E44G, E370K
B8: iPS:327286 (bispecific antibody, human IgG1, kappa, lambda, N297G)
light 1: B5 light 1 with P100E
heavy 1: not shown
light 2: B2 light 2
heavy 2: B2 heavy 2
B9: iPS:327289 (bispecific antibody, human IgG1, kappa, lambda, N297G)
light 1: not shown
heavy 1: not shown
light 2: B2 light 2 with K103G
heavy 2: B2 heavy 2 with E44G, E370K
B10: iPS:327679 (bispecific antibody, human IgG1, kappa, N297G)
light 1: B5 light 1
heavy 1: not shown
light 2: EIVLTQSPGTLSLSPGERATLSCRASQSVSSGYLTWYQQKPGQAPRLLIYGASSRATGIPDRFSGSGSGTDFTLTISRLEPEDFAVYYCQQYGNSLSRFGQGTKLEIKRTVAAPSVFIFPPSDEQLKSGTASVVCLLNNFYPREAKVQWKVDNALQSGNSQESVTEQDSKDSTYSLKSTLTLSKADYEKHKVYACEVTHQGLSSPVTKSFNRGEC
heavy 2: not shown
B11: iPS:327680 (bispecific antibody, human IgG1, kappa, N297G)
light 1: B6 light 1 with E100P
heavy 1: not shown
light 2: B10 light 2
heavy 2: not shown

Each binder was assayed against T1, human PAC1 receptor (assay: cell-based or functional assay).

% inhibition of human PAC1	Binder
79%	B1
9%	B2
50%	B3
83%	B4
60%	B5
71%	B6
88%	B7
23%	B8
75%	B9
23%	B10
92%	B11

Each binder was assayed against human CGRP receptor (human, UniProt Q16602 23-461; O60894 27-148) (assay: cell-based or functional assay).
Sequence of human CGRP receptor (Q16602 23-461 limits assumed, chain 1 of 2): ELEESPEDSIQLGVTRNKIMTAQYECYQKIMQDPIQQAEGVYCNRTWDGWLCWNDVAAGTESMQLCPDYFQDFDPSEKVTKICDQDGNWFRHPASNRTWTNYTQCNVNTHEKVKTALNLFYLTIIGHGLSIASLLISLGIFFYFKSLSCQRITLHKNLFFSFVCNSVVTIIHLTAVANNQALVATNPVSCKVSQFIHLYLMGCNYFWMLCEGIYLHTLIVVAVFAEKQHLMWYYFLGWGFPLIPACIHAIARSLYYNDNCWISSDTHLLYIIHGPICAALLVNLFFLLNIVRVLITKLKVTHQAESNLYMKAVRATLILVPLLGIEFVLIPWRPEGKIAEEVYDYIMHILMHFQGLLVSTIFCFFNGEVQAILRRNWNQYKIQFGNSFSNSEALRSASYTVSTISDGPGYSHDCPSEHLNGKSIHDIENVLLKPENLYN
Sequence of human CGRP receptor (O60894 27-148 limits assumed, chain 2 of 2): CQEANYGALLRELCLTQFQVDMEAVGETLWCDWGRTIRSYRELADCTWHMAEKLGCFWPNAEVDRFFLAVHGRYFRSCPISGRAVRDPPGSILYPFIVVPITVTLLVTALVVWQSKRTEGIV

% inhibition of human CGRPR	Binder
89%	B1
84%	B2
82%	B3
80%	B4
70%	B5
86%	B6
67%	B7
85%	B8
72%	B9
86%	B10
88%	B11
